Laboratory results published in the PETadex activity labels (doi:10.1038/s41467-025-61599-z).

B1: unnamed (protein)
chain: MALVTALALVTGVGTAPAFADEIGQAPTAANITGDGSFSTSSSAIFGQSGFGGGTAYYPNTAGKYPVVAFAPGFLSDWNALNWLGPRVASWGFVVVGVNTNTPFDFPDARGDQLLAALNWAVNSAPAAVRDKADGSRRGVSGWSMGGGGTLEALAKDTTGTVKAGVPLAPWHTNKTWSKVTEPVFIIGGQNDSVAAPASHAIPFYNSLGGPKSYLERAGADHFFPTKSNGTVSRAVVSFFKRHVSADTRFTPFLCGFSGLDVSNFRSNSC
B2: unnamed (protein)
chain: MQTNPYARGPNPTAASLEASAGPFTVRSFTVSRPSGYGAGTVYYPTNAGGTVGAIAIVPGYTARQSSIKWWGPRLASHGFVVITIDTNSTLDQPESRSSQQMAALRQVASLNGTSSSPIYGKVDTARMGVMGWSMGGGGSLISAANNPSLKAAAPQAPWHSSTNFSSVTVPTLIFACENDSIAPVNSSALPIYDSMSQNAKQFLEIKGGSHSCANSGNSNQALIGKKGVAWMKRFMDNDTRYSTFACENPNSTAVSDFRTANCS
B3: unnamed (protein)
chain: MDGVLWRVRTAALMAALLALAAWALVWASPSVEAQSNPYQRGPNPTRSALTADGPFSVATYTVSRLSVSGFGGGVIYYPTGTSLTFGGIAMSPGYTADASSLAWLGRRLASHGFVVLVINTNSRFDYPDSRASQLSAALNYLRTSSPSAVRARLDANRLAVAGHSMGGGGTLRIAEQNPSLKAAVPLTPWHTDKTFNTSVPVLIVGAEADTVAPVSQHAIPFYQNLPSTTPKVYVELDNASHFAPNSNNAAISVYTISWMKLWVDNDTRYRQFLCNVNDPALSDFRTNNRHCQ
B4: unnamed (protein)
chain: MRIRQALVAFCAAIAMVVAGPSYASALDSPYQRGPDPTEASVKAIAGPFAVDQVKATGHTGFGSGTIFYPKDEKGTFGTIAVSPGFISPEGLVHWYAKTLASHGFVVMAMGTFTVADPPPSRGDQLRAALDYMKTKSPVKDKVDPTRLGLSGHSMGGGGTLDAASKMPDLKAAVPLAPWYLTGGPVIPKVKAPTLVVGANIDFVAPMAIFATPFYKALTSPNKALLTLPGDHMTPFLLANPTLTKFAVSWFKRFLDDDTRYDQFLCPNPASYEGTCPLT
B5: unnamed (protein)
chain: MTAAAVSSRYYEETGPHAVTVEQGGPDHTLYYPSDLGAGGTQHPVVIWGNGTGATPETYDEGLRHFASWGFVVAAANTTQAGSGKEMLAGARFLIEEDQRSGSVFYGKIDETRIGAAGHSQGGGGAIAAGADPIVDTTIPIQPGPQGTVGDLHGPAFFISGQFDWIVPSSYVYSRYLGADHVPAVFGELRGADHFFPGDTRLRLIGATTAWFRFHLMADENARGIFFGPSSTCGICTDTEAWSKVDRNAKAQAIPG
B6: unnamed (protein)
chain: MNFPRASRLMQAAVLGGLMAVSAAATAQTNPYARGPNPTAASLEASAGPFTVRSFTVSRPSGYGAGTVYYPTNAGGTVGAIAIVPGYTARQSSINWWGPRLASHGFVVITIDTNSTLDQPSSRSSQQMAALRQVASLNGTSSSPIYGKVDTARMGVMGWSMGGGGSLISAANNPSLKAAAPQAPWNSSTNFSSVTVPTLIFACENDSIAPVNSHALPFYNSMSRNAKQFLEINGGSHSCANSGNSNQALIGKKGVAWMKRFMDNDTRYSTFACQNPNSTRVSDFRTANCS
B7: unnamed (protein)
chain: MRVLAMTLALVASTLATPTALAAPPDYGLPGSYPVAYSDVTAVAGGRSVPARVHYPATTSGTNQPVATGRFPVIAFGHGFFQATSKYTSTSTHLASWGFVVVVPTTQGGLSPSHGAFADDLNTGLTWLVAQDGTTGSRFRDHITTTALGVSGHSMGGGAAVLAAARNPKIKAVSTYAAAETNPSAKAAAATLAAPAQFLAGSQDTITPVGDHQRPMFTAKPPARQLRTITGGFHCGFMDSSGLFCDNGSITRAAQLTASKRVMTSWFRHYLSGDTAARDLVWGQPARTDPAVVFEGTE
B8: unnamed (protein)
chain: MQDNSDGRYRPEGRTFARGAANLFDDRLFEARTYVTGTDVAEFASATIFYPLTLSFDLPNGVVVMSPGYTGTPESYDWWGPMLASVGIITAIIETNTPEDNLEQRKNALIAGIELIKRENANSASPINNKVDESQIAIMGHSLGGGASLRAAEELEGDIKAVIPLTPYCCELGQSFEGDLKGVSTPTLIIAAADDTIAPPETHSRLLYDEINSSTNKVYLEFAEGAHGLPTNQGSEFQTQGTYVYAFLKANFTNDSKYSDFIGGDGEDSFSSYETN
B9: unnamed (protein)
chain: MRARIAALVAVPFLGAGAFAVSSVAAGDPPAVRTVPAAAAAPVDWSKTGPHQVKVDKADAHTIYRPSDLGSGGVKNPVVIWGNGTGATPAAYDGLLRHWASHGFVVAAANTKQANNGNAMRAGLDLVTKWNTTSSSPYYGKVDVSRVASSGHSQGGAGAMNAAVDTRVDAVLPIQPGPLAAPRKFKQPTFYMAGQNDRVVWPSWVRNFYNKSGHLPAVFGVVRGATHVAPAGDGGAFRGPTTAWLSFTLRGDASARAQFAGASCGYCGASSPFSNWLRNTRFTSQNG
B10: unnamed (protein)
chain: MKTNRRTLMLTGIAMTIGTAGRAAQATPEFKPQPGPLSIKSAAAISFRVEDQAKDLQIRVTYPDGPGPWPAIIFSHGAMSSKDFYNRVADHWATHGYATILPTHLDSESLGYSFKNPLPREKVFFGRIGDMQFILNHLDEIAGKAGIAGKIEKTKLAVAGHSFGGWTSLILAGLPVKMPDGSLKSFADSRIKALVSYNGIGPMDEIPDAAWAKVAIPVFAASGTNDPGATGSGPVHPWRWRIGAYDYAGSKEKYAVSITMGDHYYGGLICREGAGGKPDPEGLSFVNGSSTAFMDAYLKDDKSAKKFLRTADLRPLTNDRAFLERS
B11: unnamed (protein)
chain: MNAPLFKLAALTLGLSLASVVLANNPGGGGGTAPDTGTGFPGVSNFSASGSFATTSGSAGASCTVFRPSTLGANNRKHPIIVWGNGTTASPNTYASLLQHWASHGFVVIAANTSNAGTGQEMLGCVDYLTTQNNRSTGTYAGKLDLNRIGAAGHSQGGGGTIMAGQDYRIKVTAPFQPYTIGLGHNSSSQSNQNGPMFLMTGSIDTIASPTLNALPVYTRANVPVFWGELSGASHFEPVGNAGDFRGPATAWFRYHLMDDASAEDTFYGSNCDLCTDRDWDVRRKGIN
B12: unnamed (protein)
chain: MLSKRGILGALAGGAVAVGCLTAPAHAAGFEKGPDPTTASVTADRGSYDIAQVDVPKGSGTGFADGTIYYPKSTADGTFGAVAVIPGFLEPKSAIDWYGPRLASQGFVVMTLDTTSVFDTPDSRGGQLLAALDYLTSKSTVKDRIDPNRLAVVGHSMGGGGTLSAAANRPNLKAAVALAPWHVSAPLTSVKTPTMIFGSDNDFIAPDGTFAKPFYDGISNAPEKAYVRLKNAGHMAYVFPDKRIAEYTLSWLKRYVDDDTRYTQFLCPGPTNESTIAAYKSTCPM

substrate: p-NP-C4; test: not given; conditions: 50 °C

Which Km does the source give for B1 here?
The Km was 1040 µM.

And the kcat?
The kcat was 0.27 s⁻¹.

What about the kcat/Km of the same protein?
The kcat/Km was 260 M⁻¹ s⁻¹.

substrate: not listed separately; test: Proxy for plastic degradation [UPLC/UHPLC]; conditions: pH 9; 30 °C

Which “Proxy for plastic degradation” value does the source give for B1 here?
Its value is 65.5 µM.

For B4, which “Proxy for plastic degradation” value is on record?
The value was 11.2 µM.

With B5 as the protein, how does the “Proxy for plastic degradation” value read?
Its value is 13.9 µM.

With B6 as the protein, how does the “Proxy for plastic degradation” value read?
The value was 17.3 µM.

Which “Proxy for plastic degradation” value does the source give for B7 here?
Its value is 13 µM.

For B8, which “Proxy for plastic degradation” value is on record?
Its value is 15.4 µM.

With B9 as the protein, how does the “Proxy for plastic degradation” value read?
The value was 12.7 µM.

Which “Proxy for plastic degradation” value does the source give for B10 here?
Its value is 15.7 µM.

With B11 as the protein, how does the “Proxy for plastic degradation” value read?
Its value is 8.31 µM.

With B12 as the protein, how does the “Proxy for plastic degradation” value read?
Its value is 14.7 µM.

same assay, conditions: pH 9; 40 °C

For B1, which “Proxy for plastic degradation” value is on record?
Its value is 759 µM.

With B4 as the protein, how does the “Proxy for plastic degradation” value read?
Its value is 22.8 µM.

For B5, which “Proxy for plastic degradation” value is on record?
The value was 14.7 µM.

Which “Proxy for plastic degradation” value does the source give for B6 here?
Its value is 64.7 µM.

Which “Proxy for plastic degradation” value does the source give for B7 here?
The value was 18 µM.

Which “Proxy for plastic degradation” value does the source give for B8 here?
Its value is 15.5 µM.

With B9 as the protein, how does the “Proxy for plastic degradation” value read?
The value was 12.6 µM.

With B10 as the protein, how does the “Proxy for plastic degradation” value read?
The value was 12.8 µM.

For B11, which “Proxy for plastic degradation” value is on record?
The value was 9.03 µM.

Which “Proxy for plastic degradation” value does the source give for B12 here?
The value was 14.2 µM.

same assay, conditions: pH 9; 50 °C

With B1 as the protein, how does the “Proxy for plastic degradation” value read?
Its value is 3600 µM.

For B4, which “Proxy for plastic degradation” value is on record?
The value was 44.2 µM.

With B5 as the protein, how does the “Proxy for plastic degradation” value read?
The value was 10.6 µM.

With B6 as the protein, how does the “Proxy for plastic degradation” value read?
The value was 46.9 µM.

Which “Proxy for plastic degradation” value does the source give for B7 here?
The value was 16.6 µM.

Which “Proxy for plastic degradation” value does the source give for B8 here?
The value was 15.5 µM.

With B9 as the protein, how does the “Proxy for plastic degradation” value read?
Its value is 15.7 µM.

Which “Proxy for plastic degradation” value does the source give for B10 here?
Its value is 17.3 µM.

With B11 as the protein, how does the “Proxy for plastic degradation” value read?
The value was 9.57 µM.

Which “Proxy for plastic degradation” value does the source give for B12 here?
Its value is 14.1 µM.

same assay, conditions: pH 9; 55 °C

With B1 as the protein, how does the “Proxy for plastic degradation” value read?
Its value is 596 µM.

For B4, which “Proxy for plastic degradation” value is on record?
Its value is 26.1 µM.

Which “Proxy for plastic degradation” value does the source give for B5 here?
The value was 15.5 µM.

For B6, which “Proxy for plastic degradation” value is on record?
The value was 27.4 µM.

With B7 as the protein, how does the “Proxy for plastic degradation” value read?
Its value is 16.2 µM.

For B8, which “Proxy for plastic degradation” value is on record?
Its value is 16.6 µM.

With B9 as the protein, how does the “Proxy for plastic degradation” value read?
Its value is 16 µM.

With B10 as the protein, how does the “Proxy for plastic degradation” value read?
The value was 17.3 µM.

With B11 as the protein, how does the “Proxy for plastic degradation” value read?
Its value is 9.09 µM.

With B12 as the protein, how does the “Proxy for plastic degradation” value read?
Its value is 14.4 µM.

same assay, conditions: pH 9; 60 °C

With B1 as the protein, how does the “Proxy for plastic degradation” value read?
The value was 167 µM.

With B4 as the protein, how does the “Proxy for plastic degradation” value read?
The value was 19.7 µM.

For B5, which “Proxy for plastic degradation” value is on record?
The value was 15.3 µM.

Which “Proxy for plastic degradation” value does the source give for B6 here?
The value was 17.4 µM.

Which “Proxy for plastic degradation” value does the source give for B7 here?
The value was 16.5 µM.

For B8, which “Proxy for plastic degradation” value is on record?
The value was 16.1 µM.

With B9 as the protein, how does the “Proxy for plastic degradation” value read?
The value was 16.4 µM.

With B10 as the protein, how does the “Proxy for plastic degradation” value read?
The value was 17.2 µM.

For B11, which “Proxy for plastic degradation” value is on record?
Its value is 9.47 µM.

With B12 as the protein, how does the “Proxy for plastic degradation” value read?
The value was 15 µM.

substrate: p-NP-C4; test: not given; conditions: 50 °C; part of the chain shown

With B2 as the protein, how does the Km read?
The Km was 1570 µM.

And the kcat?
Its kcat is 0.215 s⁻¹.

And the kcat/Km?
The kcat/Km was 137 M⁻¹ s⁻¹.

same assay, conditions: pH 8; 65 °C

What does the source list for B3?
Km: 1050 µM; kcat: 0.186 s⁻¹; kcat/Km: 177 M⁻¹ s⁻¹

substrate: PET; test: Proxy for plastic degradation [kcat/Km (catalytic efficiency)] (mM⁻¹s⁻¹); conditions: pH 8

For B3, which “Proxy for plastic degradation” value is on record?
The value was 0.208.

substrate: PET; test: Proxy for plastic degradation [Released monomer concentration (HPLC/LC-MS) (TPA+MHET)]; conditions: 30 °C

For B3, which “Proxy for plastic degradation” value is on record?
The value was 44.7 µM.

same assay, conditions: 40 °C

With B3 as the protein, how does the “Proxy for plastic degradation” value read?
Its value is 115 µM.

same assay, conditions: 50 °C

For B3, which “Proxy for plastic degradation” value is on record?
The value was 628 µM.

same assay, conditions: 55 °C

With B3 as the protein, how does the “Proxy for plastic degradation” value read?
The value was 2030 µM.

same assay, conditions: 60 °C

For B3, which “Proxy for plastic degradation” value is on record?
The value was 2450 µM.

same assay, conditions: 65 °C

With B3 as the protein, how does the “Proxy for plastic degradation” value read?
The value was 3150 µM.
